Here are results for seven molecules from paper PMC8986478 (Immunity, 2022).

The chains are these.
B1: C1520 IgG (antibody, V domains shown)
VH: EVQLVESGGGLVQPGGSLRLACVASGFTFSIYEMNWVRQAPGKGLEWVSYITTSGHARYNADSVKGRFTISRDNSKNSFYLQMNSLRAEDTAIYYCARPQYHYYDTSTYHSYGFDIWGQGTMVTVSS
VL: QLVLTQSPSASASLGASVNLTCTLSSGHNSYAIAWHQQQPEKGPRYLMSLNSDGSHTKGDGIPDRFSGSSSGAERFLTISSLQSEDEADYYCQTWDTGIRVFGGGTRLTVL
B2: C1704 IgG (antibody, V domains shown)
VH: QVQLVQSGAEVKKPGASVKVSCKVSGYTLTELSIHWVRQAPGKGLEWMGSFDPEDGETICAQKFQGRVTMTEDTSTDTAYMELSSLRSEDTAVYYCATEWRGCSDTSCQGTNWFDPWGQGTLVTVSS
VL: QPVLTQSPSASASLGASVKLTCTLSSGHSTYAIAWHQQQPEKGPRYLMKLNSDGSHNKGDGIPDRFSGSSSGAERYLTISSLQSEDEADYYCQTWGTGVRVFGGGTKLTVL
B3: C1621 IgG (antibody, V domains shown)
VH: EVQLVESGGGLVKPGGSLRLSCAASGFSFNNSNMNWVRQAPGKGLEWVSSISSSSNYIYYVDSVKGRFTISRDNAKNSLYLQMSSLRVEDTAVYYCASAQSSARWGGYYQYAMDVWGQGTTVTVSS
VL: EIVMTQSPATLSVSPGERATLSCRASQSVSSSLAWYQQKPGQAPRLLIYDASTRATGIPARFSGRGSGTEFTLTISSLQSEDFAVYYCQQYYNWPPWTFGQGTKVEI
B4: C1791 IgG (antibody, V domains shown)
VH: EVQLLESGGGLVQPGGSRRLSCAASGFTFSIAAMSWVRQAPGKGLEWVSVISTSGGTSYYADSVRGRFTISRDNSQNTLYLQMNSLSAEDTAIYYCAKDLGSYFPDYWGQGTLVTVSS
VL: DIQMTQSPSSLSASVGDRVTITCRASQGIRNDIGWYQQKPGKAPKRLIHAASSLQSGVPSRFSGSGSGTEFTLTISSLQPEDFATYYCLQYNSYPRVTFGPGTKVDIK
B5: C1557 IgG (antibody, V domains shown)
VH: QVQLVQSGAEVRKPGASVKVSCKVSGYTLTELSMHWVRQSPGKGLEWMGSFDPDDGETFYAQKFQGRITMSEDTSTDTAYMELSSLRSEDTAVYFCATDSNMIVVRGNYYYSGLDVWGQGTTVTVSS
VL: EIVMTQSPATLSVSPGERATLSCRASQSVAGNLAWYQQKPGLAPRLLIQGPSTRATGIPARFSGSGSGTEFTLTISSLQSEDFAVYYCHQYNNWPWTFGQGTKVEIK
B6: C1554 IgG (antibody, V domains shown)
VH: QVQLVQSGAEVKKPGASVKVSCKVSGYTLPEISIHWVREAPGKGLEWMGGFDPEDGETIYSQRFQGRVTMTEDTSTDTAYMELSSLRSEDTAVYYCAASSPFSGGWFHPWGQGTLVTVSS
VL: QSALTQPASVSGSPGQSITISCTETSSDVGNYNLVSWYQQHPGKAPKLVIYEGTKRPSGVSNRFSASKSGNTASLTISELQAEDEANYYCCSYARSGVFGGGTKLTVL
B7: C1717 IgG (antibody, V domains shown)
VH: QVQLVQSGAEVKKPGSSVKVSCKTSGGTFNSFAINWVRQAPGQGPEWMGRVIPVLEIANYAQKFQGRITITADKSTSTAYMELSSLTSEDTAIYYCARHHIAVAQPYFDYWGQGTLVTVSS
VL: not shown

In the assay the target is SARS-CoV-2 Wuhan-Hu-1 NTD (SARS-CoV-2 Wuhan-Hu-1, UniProt P0DTC2). The assay is described as follows: BLI. A general note: Biolayer interferometry detects binding as a change in optical thickness at a sensor tip.
Consider B1, for which the binding result is “binds”.
Then B2, with “binds”; and B3, with “binds”.
Then B4, with “binds”; and B5, with “binds”; and B6, with “binds”.
On to B7, for which the binding result is “binds”.
